The results in this text go back to the supplement of paper PMC5998384.

Series [1] has as its system HeLa Kyoto. The series is described as follows: solubility in G1/S (NP-40 vs SDS abundance) (log2 ratio); higher = more soluble. The settings on record: cell cycle stage: G1/S.
Series [2] relates to HeLa Kyoto. As to the kind of experiment: melting temperature (median over replicates), in situ; higher = more thermally stable.
The subject of series [3] is HeLa Kyoto. The series is described as follows: solubility change mitosis vs G1/S (difference of NP-40 vs SDS log2 ratios) (log2 ratio difference); higher = more soluble in mitosis.
The test system of series [4] is HeLa Kyoto. The series is described as follows: thermal stability score vs G1/S (z-score of summed log2 fold changes over temperatures); higher = more thermally stable than in G1/S.
[5] abbreviates: cell cycle stage: early G1 (4.5 h after nocodazole release).
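For melting temperature (median over replicates), in situ in this document: HeLa Kyoto cells synchronized by double thymidine or nocodazole block, proteins quantified by TMT10plex mass spectrometry, three independent biological replicates.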
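For solubility change mitosis vs G1/S (difference of NP-40 vs SDS log2 ratios) in this document: synchronized HeLa Kyoto cells (double thymidine block for G1/S, nocodazole release for mitosis), protein amounts in NP-40 versus SDS lysates quantified by mass spectrometry, three biological replicates.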
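For solubility in G1/S (NP-40 vs SDS abundance) in this document: HeLa Kyoto cells arrested at G1/S by double thymidine block, proteins quantified by TMT10plex mass spectrometry in mild NP-40 versus SDS extracts, three biological replicates.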
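For thermal stability score vs G1/S (z-score of summed log2 fold changes over temperatures) in this document: synchronized HeLa Kyoto cells, proteins quantified by TMT10plex mass spectrometry, three biological replicates, mitosis taken 0.5 h after nocodazole release, G1/S directly after double thymidine block.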

In the case of “MWSEGRYEYERIPRERAPPRSHPSDGYNRLVNIVPKKPPLLDRPGEGSYNRYYSHVDYRDYDEGRSFSHDRRSGPPHRGDESGYRWTRDDHSASRQPEYRDMRDGFRRKSFYSSHYARERSPYKRDNTFFRESPVGRKDSPHSRSGSSVSSRSYSPERSKSYSFHQSQHRKSVRPGASYKRQNEGNPERDKERPVQSLKTSRDTSPSSGSAVSSSKVLDKPSRLTEKELAEAASKWAAEKLEKSDESNLPEISEYEAGSTAPLFTDQPEEPESNTTHGIELFEDSQLTTRSKAIASKTKEIEQVYRQDCETFGMVVKMLIEKDPSLEKSIQFALRQNLHEIESAGQTWQQVPPVRNTEMDHDGTPENEGEETAQSAPQPPQAPQPLQPRKKRVRRTTQLRRTTGAPDITWGMLKKTTQEAERILLRTQTPFTPENLFLAMLSVVHCNSRKDVKPENKQ [PPHLN1]”, the “solubility in G1/S (log2)” value in the series on HeLa Kyoto [1] is -0.763. Besides, the results for the melting temperature in the series with HeLa Kyoto [2] (cell cycle stage: G1/S) and with HeLa Kyoto [2] (cell cycle stage: mitosis) were 52.2 °C and 50.4 °C, respectively. Besides, the “solubility change mitosis (log2)” value with HeLa Kyoto [3] amounted to 0.849. In addition, the thermal stability score with HeLa Kyoto [4] (setting [5]) was determined as 0.616; in the series with HeLa Kyoto [4] (cell cycle stage: mitosis) it was 1.63.

In the case of “MWSGRKLGSSGGWFLRVLGPGGCNTKAARPLISSAVYVKNQLSGTLQIKPGVFNEYRTIWFKSYRTIFSCLNRIKSFRYPWARLYSTSQTTVDSGEVKTFLALAHKWWDEQGVYAPLHSMNDLRVPFIRDNLLKTIPNHQPGKPLLGMKILDVGCGGGLLTEPLGRLGASVIGIDPVDENIKTAQCHKSFDPVLDKRIEYRVCSLEEIVEETAETFDAVVASEVVEHVIDLETFLQCCCQVLKPGGSLFITTINKTQLSYALGIVFSEQIASIVPKGTHTWEKFVSPETLESILESNGLSVQTVVGMLYNPFSGYWHWSENTSLNYAAYAVKSRVQEHPASAEFVLKGETEELQANACTNPAVHEKLKK [COQ3]”, the “solubility in G1/S (log2)” value with HeLa Kyoto [1] came out at 0.345. Further, the values for the melting temperature with HeLa Kyoto [2] (cell cycle stage: G1/S) and with HeLa Kyoto [2] (cell cycle stage: mitosis) were 55.3 °C and 56.3 °C, respectively. Besides, in the series on HeLa Kyoto [3], the “solubility change mitosis (log2)” value was -0.0133. Also, the thermal stability score is -0.812 with HeLa Kyoto [4] (setting [5]) and -0.988 in the series on HeLa Kyoto [4] (cell cycle stage: mitosis).

Turning to “MWSPEREAEAPAGGDPAGLLPPEWEEDEERMSFLFSAFKRSREVNSTDWDSKMGFWAPLVLSHSRRQGVVRLRLRDLQEAFQRKGSVPLGLATVLQDLLRRGELQRESDFMASVDSSWISWGVGVFLLKPLKWTLSNMLGDNKVPAEEVLVAVELLKEKAEEVYRLYQNSPLSSHPVVALSELSTLCANSCPDERTFYLVLLQLQKEKRVTVLEQNGEKIVKFARGPRAKVSPVNDVDVGVYQLMQSEQLLSRKVESLSQEAERCKEEARRACRAGKKQLALRSLKAKQRTEKRIEALHAKLDTVQGILDRIYASQTDQMVFNAYQAGVGALKLSMKDVTVEKAESLVDQIQELCDTQDEVSQTLAGGVTNGLDFDSEELEKELDILLQDTTKEPLDLPDNPRNRHFTNSVPNPRISDAELEAELEKLSLSEGGLVPSSKSPKRQLEPTLKPL [CHMP7]”, the “solubility in G1/S (log2)” value in the series on HeLa Kyoto [1] stood at 0.221. Moreover, the values for the melting temperature in the series with HeLa Kyoto [2] (cell cycle stage: G1/S) and with HeLa Kyoto [2] (cell cycle stage: mitosis) were 49.2 °C and 48.9 °C, respectively. The “solubility change mitosis (log2)” value in the series on HeLa Kyoto [3] was -0.0049. Moreover, the thermal stability score stood at 0.579 in the series on HeLa Kyoto [4] (setting [5]) and 1.08 in the series on HeLa Kyoto [4] (cell cycle stage: mitosis).

Turning to “MYAVYKQAHPPTGLEFSMYCNFFNNSERNLVVAGTSQLYVYRLNRDAEALTKNDRSTEGKAHREKLELAASFSFFGNVMSMASVQLAGAKRDALLLSFKDAKLSVVEYDPGTHDLKTLSLHYFEEPELRDGFVQNVHTPRVRVDPDGRCAAMLVYGTRLVVLPFRRESLAEEHEGLVGEGQRSSFLPSYIIDVRALDEKLLNIIDLQFLHGYYEPTLLILFEPNQTWPGRVAVRQDTCSIVAISLNITQKVHPVIWSLTSLPFDCTQALAVPKPIGGVVVFAVNSLLYLNQSVPPYGVALNSLTTGTTAFPLRTQEGVRITLDCAQATFISYDKMVISLKGGEIYVLTLITDGMRSVRAFHFDKAAASVLTTSMVTMEPGYLFLGSRLGNSLLLKYTEKLQEPPASAVREAADKEEPPSKKKRVDATAGWSAAGKSVPQDEVDEIEVYGSEAQSGTQLATYSFEVCDSILNIGPCANAAVGEPAFLSEEFQNSPEPDLEIVVCSGHGKNGALSVLQKSIRPQVVTTFELPGCYDMWTVIAPVRKEEEDNPKGEGTEQEPSTTPEADDDGRRHGFLILSREDSTMILQTGQEIMELDTSGFATQGPTVFAGNIGDNRYIVQVSPLGIRLLEGVNQLHFIPVDLGAPIVQCAVADPYVVIMSAEGHVTMFLLKSDSYGGRHHRLALHKPPLHHQSKVITLCLYRDLSGMFTTESRLGGARDELGGRSGPEAEGLGSETSPTVDDEEEMLYGDSGSLFSPSKEEARRSSQPPADRDPAPFRAEPTHWCLLVRENGTMEIYQLPDWRLVFLVKNFPVGQRVLVDSSFGQPTTQGEARREEATRQGELPLVKEVLLVALGSRQSRPYLLVHVDQELLIYEAFPHDSQLGQGNLKVRFKKVPHNINFREKKPKPSKKKAEGGGAEEGAGARGRVARFRYFEDIYGYSGVFICGPSPHWLLVTGRGALRLHPMAIDGPVDSFAPFHNVNCPRGFLYFNRQGELRISVLPAYLSYDAPWPVRKIPLRCTAHYVAYHVESKVYAVATSTNTPCARIPRMTGEEKEFETIERDERYIHPQQEAFSIQLISPVSWEAIPNARIELQEWEHVTCMKTVSLRSEETVSGLKGYVAAGTCLMQGEEVTCRGRILIMDVIEVVPEPGQPLTKNKFKVLYEKEQKGPVTALCHCNGHLVSAIGQKIFLWSLRASELTGMAFIDTQLYIHQMISVKNFILAADVMKSISLLRYQEESKTLSLVSRDAKPLEVYSVDFMVDNAQLGFLVSDRDRNLMVYMYLPEAKESFGGMRLLRRADFHVGAHVNTFWRTPCRGATEGLSKKSVVWENKHITWFATLDGGIGLLLPMQEKTYRRLLMLQNALTTMLPHHAGLNPRAFRMLHVDRRTLQNAVRNVLDGELLNRYLYLSTMERSELAKKIGTTPDIILDDLLETDRVTAHF [CPSF1]”, the “solubility in G1/S (log2)” value with HeLa Kyoto [1] was -0.464. Also, the melting temperature is 50.3 °C in the series on HeLa Kyoto [2] (cell cycle stage: G1/S) and 50.6 °C in the series on HeLa Kyoto [2] (cell cycle stage: mitosis). In the series on HeLa Kyoto [3], the “solubility change mitosis (log2)” value amounted to 0.129. The thermal stability score is -0.361 in the series on HeLa Kyoto [4] (setting [5]) and 0.307 with HeLa Kyoto [4] (cell cycle stage: mitosis).

“MYFPSWLSQLYRGLSRPIRRTTQPIWGSLYRSLLQSSQRRIPEFSSFVVRTNTCGELRSSHLGQEVTLCGWIQYRRQNTFLVLRDFDGLVQVIIPQDESAASVKKILCEAPVESVVQVSGTVISRPAGQENPKMPTGEIEIKVKTAELLNACKKLPFEIKNFVKKTEALRLQYRYLDLRSFQMQYNLRLRSQMVMKMREYLCNLHGFVDIETPTLFKRTPGGAKEFLVPSREPGKFYSLPQSPQQFKQLLMVGGLDRYFQVARCYRDEGSRPDRQPEFTQIDIEMSFVDQTGIQSLIEGLLQYSWPNDKDPVVVPFPTMTFAEVLATYGTDKPDTRFGMKIIDISDVFRNTEIGFLQDALSKPHGTVKAICIPEGAKYLKRKDIESIRNFAADHFNQEILPVFLNANRNWNSPVANFIMESQRLELIRLMETQEEDVVLLTAGEHNKACSLLGKLRLECADLLETRGVVLRDPTLFSFLWVVDFPLFLPKEENPRELESAHHPFTAPHPSDIHLLYTEPKKARSQHYDLVLNGNEIGGGSIRIHNAELQRYILATLLKEDVKMLSHLLQALDYGAPPHGGIALGLDRLICLVTGSPSIRDVIAFPKSFRGHDLMSNTPDSVPPEELKPYHIRVSKPTDSKAERAH [DARS2]”: in the series with HeLa Kyoto [1], the “solubility in G1/S (log2)” value was 0.144. Further, the values for the melting temperature in the series on HeLa Kyoto [2] (cell cycle stage: G1/S) and with HeLa Kyoto [2] (cell cycle stage: mitosis) were 55.5 °C and 55.9 °C, respectively. Moreover, in the series with HeLa Kyoto [3], the “solubility change mitosis (log2)” value was -0.114. In addition, the thermal stability score in the series with HeLa Kyoto [4] (setting [5]) is -0.868; with HeLa Kyoto [4] (cell cycle stage: mitosis), 0.237.
